The supplement of paper PMC10567573
± gives the standard deviation.

Experiment: protein stability index of a GFP-peptide fusion (GPS, HEK-293T) (PSI 1-6); higher = more stable
[1] = treatment: DMSO, c terminus: a fixed tail appended
[2] = treatment: MLN4924 1 uM, 8 h, c terminus: a fixed tail appended
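Further: 24-mer peptide tiles fused after GFP, lentivirally expressed, FACS-sorted into six equal bins by GFP/DsRed ratio, decoded by Illumina sequencing, PSI is the read-weighted mean bin number.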

Sequence | protein stability index [1] | protein stability index [2] | protein stability index (treatment: DMSO, c terminus: native) | protein stability index (treatment: MLN4924 1 uM, 8 h, c terminus: native)
LMKGGADLFVENMPGFPDNIRPSS [APMAP] | 3.66 ± 0.1 | 3.77 ± 0.33 |  | 
FLEEAHEWNQKRARKAMRNGISPI [N4BP2L1] | 3.1 ± 0.29 | 3.18 ± 0.34 |  | 
HLLEAEPLSPIQASSVHLKSESSL | 4.16 ± 0.1 | 4.14 ± 0.15 |  | 
YDITKEETFSTLKNWVKELRQHGP [RAB22A] | 2.85 ± 0.49 | 3.24 ± 0.16 |  | 
RQLALPATEQAATQESTFQELCEG [NOP53] | 5.12 ± 0.16 | 5.22 ± 0.21 |  | 
KVMIHPDPERRPSAMALVKHSVLL [WEE1] | 2.22 ± 0.14 | 2.34 ± 0.57 |  | 
SKAKPKPPKQAQKEQRKQMKGRGQ [TBC1D10A] | 5.02 ± 0.23 | 5.08 ± 0.31 |  | 
RGWLLTSGTDKVIKLWDMTPVVS [WDFY2] |  |  | 2.01 ± 0.2 | 2.26 ± 0.24
ACKSLQTRQNGIQTNKPALRAVRQ [STX5] | 4.07 ± 0.17 | 3.95 ± 0.2 |  | 
ITNQEELWKMKPRRNLEEDDYLHK [STEAP1] | 4.22 ± 0.41 | 4.02 ± 0.26 |  | 
SRGTSQTPNASSPGNPTALANGTV [LPCAT4] | 4.73 ± 0.051 | 4.77 ± 0.068 |  | 
CGDYFPDGITNGASWYSLSKGMQD [CPN1] | 2.52 ± 0.12 | 2.74 ± 0.14 |  | 
PVGFGRRTDPNGDYIRRYLPVLRG [CRY1] | 3.14 ± 0.2 | 3.17 ± 0.39 |  | 
ERKKNLTLALEALVQLRGRLTSQD [ALG2] | 2.79 ± 0.16 | 2.88 ± 0.48 |  | 
QESDQTEEHESGIEQFSESHAIHV [IQUB] | 5.34 ± 0.18 | 5.45 ± 0.22 |  | 
VEISRRLRHSNPRADPLVCATGLL [SPNS1] | 2.22 ± 0.11 | 2.31 ± 0.32 |  | 
LLEESDGEGEPGQGEGPEAGDAEV [NOP53] | 5.62 ± 0.22 | 5.61 ± 0.14 |  | 
LLDATVAGGQTRLQASDRYRDLAG [FCHSD1] | 3.99 ± 0.14 | 3.86 ± 0.12 |  | 
ENYLEYRQVPGSDPACYEFLWGPR [MAGEA3] | 3.12 ± 0.34 | 3.17 ± 0.36 |  | 
EKPIGSCVTNPCGPRSRCGPCNTF [KRT33B] | 2.34 ± 0.24 | 2.52 ± 0.27 |  | 
VYPRPPEPREFSSRNFGVRNQGNF [ZC2HC1C] | 3.24 ± 0.15 | 3.24 ± 0.29 |  | 
KIKVRFSFFLQIYLIMIFLGLYIN [HACD3] | 3 ± 0.73 | 2.29 ± 0.96 |  | 
PYLRFGCLSCRLFYFKLTDLYKKV [CRY1] | 2.55 ± 0.45 | 2.32 ± 0.38 |  | 

Sequence | protein stability index [1] | protein stability index [2] | protein stability index (treatment: DMSO, c terminus: native) | protein stability index (treatment: MLN4924 1 uM, 8 h, c terminus: native)
ALCVVDTIKRSSQTGEWQNIAIMT [GFOD1] | 2.31 ± 0.24 | 2.2 ± 0.14 |  | 
VGQDNGAVMEFHVSEDFNKMNFIK [WDFY1] | 3.29 ± 1.1 | 3.14 ± 0.36 |  | 
TTMNYPLWSQSYEDSSNQEEEGPS [MAGEA3] | 5.43 ± 0.11 | 5.36 ± 0.13 |  | 
DVFSENLLADVKGARAALNEIESR [STX11] | 4.22 ± 0.22 | 4.37 ± 0.12 |  | 
ERENVAVAKLQESQPGNAVIDKET [SDE2] | 5.37 ± 0.25 | 5.06 ± 0.21 |  | 
KLSFRARAYGFRGPGPQLRRGWRP [CHGA] | 3.01 ± 0.2 | 3.08 ± 0.29 |  | 
RMLMKRLDVTVQSFGWSDRAKVKT [FAM98B] | 2.48 ± 0.34 | 2.34 ± 0.34 |  | 
SLFCYEDQEAVCLICAISHTHRAH [TRIM39] | 2.15 ± 0.19 | 2.19 ± 0.2 |  | 
KSHVMDQAINNAINYLGAESLRPL [IKZF1] | 2.58 ± 0.24 | 2.49 ± 0.31 |  | 
QQRPHPRSHSREPRAERKCPRIAP [ELOA2] | 4.49 ± 0.46 | 4.53 ± 0.071 |  | 
WVLLFTPCSFVCWYRPMYKAFRSD [SCAMP3] | 2.92 ± 0.31 | 3 ± 0.37 |  | 
IPPYSRASLKGYQWLKDKILSEEG [KCNAB2] | 2.64 ± 0.45 | 3.02 ± 0.54 |  | 
PFKAYLDVDITLSSEAFHNYMNAA [RTN3] | 2.92 ± 0.44 | 2.71 ± 0.72 |  | 
PPRGAVERHSDLPPLNPTSWWADL [SPNS1] | 3.28 ± 0.29 | 3.34 ± 0.29 |  | 
YPASTSQDSFEAAGNSTSGSRAGA [KCNA3] | 5.21 ± 0.24 | 5.2 ± 0.35 |  | 
HRRRSRERGPYRTRKHAHHCHKRR [CLK3] | 4.49 ± 0.31 | 4.57 ± 0.25 |  | 
DKYCPLLIKEGGMPLLRDIIKMAT [ZER1] | 2.46 ± 0.3 | 2.22 ± 0.31 |  | 
VESLKRFCASTRLPPTPLLLFPEE [AUP1] | 2.81 ± 0.35 | 3.01 ± 0.35 |  | 
AEHWKHKKEESGRERKKNWGGQED [PBXIP1] | 5.24 ± 0.37 | 4.96 ± 0.4 |  | 
PLPESLASLHPSVSPGSPPPPLPN [PLAGL1] | 5.01 ± 0.27 | 4.95 ± 0.16 |  | 
DSFPEGPERLHAIKEQLIQEGLLD [HDAC6] | 4.94 ± 0.49 | 4.76 ± 0.27 |  | 
KDREYTDIIRKQVLGTKVDAERDG [CDC34] | 5.08 ± 0.21 | 4.99 ± 0.18 |  | 
SVWVLRDFPEDGLKIFTEDLPEVE [VPS39] | 3.55 ± 0.34 | 3.59 ± 0.33 |  | 

Sequence | protein stability index [1] | protein stability index [2] | protein stability index (treatment: DMSO, c terminus: native) | protein stability index (treatment: MLN4924 1 uM, 8 h, c terminus: native)
NAAHLGDKRRDLAHLAAEVEGKCL [TRIM39] | 4.46 ± 0.22 | 4.5 ± 0.16 |  | 
SACTVALHIFQLNEDGPSSENLEE [TRIP13] | 3.23 ± 0.2 | 3.33 ± 0.19 |  | 
QETVLVEERRVVHASGDASYSAGD [EPB41L3] | 5.28 ± 0.2 | 5.38 ± 0.24 |  | 
KLLKSMPILQGQIDALLEFDVHPN [SNAP91] | 2.12 ± 0.21 | 2.33 ± 0.17 |  | 
LWDRAYVRLKPALQRLDFSVRGYM [RETREG3] | 2.5 ± 0.43 | 2.69 ± 0.65 |  | 
EINSHSLFSKWFSESGKLVTKMFQ [TRIP13] | 2.58 ± 0.21 | 2.48 ± 0.42 |  | 
PANLYVRELREVRRVPPRFSIPPT [PTPRD] | 2.95 ± 0.2 | 3.05 ± 0.41 |  | 
APLSSRKHVLYVEHRHLNPDTELK [TCF25] | 3.72 ± 0.35 | 3.87 ± 0.51 |  | 
RSLNVASGSGKSGGYGFGRGRASG [KRT71] | 4.35 ± 0.38 | 4.49 ± 0.27 |  | 
HTEVVRDLTFAPDGSLILVSASRD [WSB1] | 3.45 ± 0.054 | 3.53 ± 0.27 |  | 
GTFQVNFYHDHTKIIICSQNEEYL [PLK2] | 2.5 ± 1.1 | 2.21 ± 0.42 |  | 
YRFASAGDDGIVVVWNAQTGEKLL [WDR41] | 2.43 ± 0.17 | 2.75 ± 0.1 |  | 
IVSQKQIADRAAHDESPGNNVVDI [RAB11B] | 5.16 ± 0.12 | 5.12 ± 0.1 |  | 
DYRGPDCRYLNFTKGEEISVYVKL [MIA2] | 2.45 ± 0.53 | 2.81 ± 0.95 |  | 
CSEGFLINEDLKTCSRVDYCLLSD [MATN2] | 2.99 ± 0.44 | 3.28 ± 0.14 |  | 
LPPCAVRNLQDLARIYIRRTLRNF [PCMTD1] | 2.06 ± 0.29 | 2.04 ± 0.26 |  | 
SREMLQQSKILKVIRKNIVKKCLE [HSP90AB1] | 2.56 ± 0.31 | 2.42 ± 0.57 |  | 
VRHNLGDTRLGQVSALPLPPAMKR [SPSB2] | 3.89 ± 0.097 | 3.98 ± 0.33 |  | 
MVTQILGAMESQVGGGPAGPALPN [ELAVL3] | 2.69 ± 0.098 | 3.01 ± 0.53 |  | 
DNVAYARAFNTDHQTQLLYQASAM [RAD51] | 3.12 ± 0.047 | 3.27 ± 0.15 |  | 
GTIRPVRCPSSSLHMSQRERTWPP [C22orf15] | 3.77 ± 0.098 | 3.75 ± 0.17 |  | 
FSQEIGLASLGASEEAVQKLATCY [TPH1] | 3.12 ± 0.18 | 3.34 ± 0.3 |  | 
SVKKQGETVADVRTLPNASTVDNI [MLH1] | 5.12 ± 0.12 | 5.25 ± 0.14 |  | 

Sequence | protein stability index [1] | protein stability index [2] | protein stability index (treatment: DMSO, c terminus: native) | protein stability index (treatment: MLN4924 1 uM, 8 h, c terminus: native)
TQEKKRLSRTNEELLWKLQTGDPT [MTUS2] | 4.46 ± 0.34 | 4.36 ± 0.11 |  | 
EREASPSNSCQDSTDTESNNEEQR [IKZF1] | 5.24 ± 0.45 | 5.61 ± 0.22 |  | 
RSQQQEPLLCPSYQSYFKTIEELQ [KRT33B] | 3.21 ± 0.37 | 3.43 ± 0.18 |  | 
EARSYLSEEMIAEFKAAFDMFDAD [TNNC2] | 4.16 ± 0.46 | 4.15 ± 0.23 |  | 
RPSEAQSVILRRYFLELTQSFIIP [DENND6A] | 2.91 ± 0.44 | 2.67 ± 0.45 |  | 
LEQEEERLSKEWEDSKRWSKMDQL [CHGA] | 4.81 ± 0.24 | 4.73 ± 0.17 |  | 
AVINWVKHAKKEREESLPNLLQYV [KLHL12] | 2.02 ± 0.32 | 2.49 ± 0.54 |  | 
PSPAPAVAAAAAATTAATAAATTT [SNAP91] | 5.33 ± 0.31 | 5.39 ± 0.17 |  | 
ECPTCGHSYNVTQRRPRVLSCLHS [RNF208] | 3.22 ± 0.17 | 3.45 ± 0.49 |  | 
SSFSRPLGYPYVNSVSSHASSPYI [DLX1] | 2.62 ± 0.18 | 2.79 ± 0.51 |  | 
PAPSPAKEERKTEVVMNSQQTPVG [PALM] | 5.52 ± 0.19 | 5.46 ± 0.13 |  | 
NIYVHDLLTFQQITTVSKAKGASL [VPS39] | 2.32 ± 0.3 | 2.27 ± 0.34 |  | 
LGKPDQKDLNENLAATQGLAHMIA [DLC1] | 3.79 ± 0.12 | 3.84 ± 0.23 |  | 
DTLRRRLLAPEAGSHPQQTQKLEE [TOR1AIP2] | 5.35 ± 0.3 | 5.41 ± 0.15 |  | 
IKEEENSEEELAAATTSKEQEPIG [MYBL2] | 5.7 ± 0.31 | 5.72 ± 0.21 |  | 
AREGAGLVVASGVIYCLGGYDGLN [KLHL12] | 2.81 ± 0.59 | 2.39 ± 0.51 |  | 
LMKESLQTGDLLSTFHTISPSFQL [PLAGL1] | 2.24 ± 0.13 | 2.17 ± 0.16 |  | 
TIPLFVQLLYSPIENIQRVAAGVL [CTNNB1] | 2.77 ± 0.78 | 2.71 ± 0.38 |  | 
EIDIFNPQTVGVGRARFTTYEVRM [SNX12] | 2.36 ± 0.069 | 2.57 ± 0.44 |  | 
FGSFLLLLFSLTQFSVVSVVAYLA [RTN1] | 3.14 ± 0.62 | 3.35 ± 0.6 |  | 
